The results in this text go back to paper PMC6525264.

Data set [1] in a line: Western blot of media, sAPPβ (1A9). The settings on record: glycan lost; control: empty vector (Hyg) cell line. (In general: In western blotting, separated proteins are transferred to a membrane and probed.)
Data set [2] in a line: flow cytometry, cell surface APP, non-permeabilised cells. The conditions noted are these: glycan lost; control: APPWT cell line.

As to “β-Amyloid precursor protein (APP695): APPN496K”, the “other: proteolytic processing” value in data set [1] is reported as “decreases”. Further, in data set [2], the localisation_or_trafficking result was “decreases”.
With “β-Amyloid precursor protein (APP695): APPN467K”, the “other: proteolytic processing” value in data set [1] was “decreases”. In addition, the localisation_or_trafficking entry in data set [2] is recorded as “decreases”.
